Measurements reported in patent US20110045003A1 (SYNOVEX, published 2011).

T1: BSA coupled 37-mer Cad-11 peptide encompassing the Cad-11 immunogen (UniProt P55287 54-90, limits assumed, linked to BSA)
T1 construct: domain: 37-mer peptide encompassing the Cad-11 immunogen; also called Cad-11 antigen; Cad-11 peptide immunogen
T1 peptide (looked up): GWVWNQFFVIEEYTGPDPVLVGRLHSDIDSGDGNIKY

T2: Cad-7 EC1 domain peptide (region overlapping G1-G33 of Cad-11 EC1) (UniProt Q9ULB5 48-80, conjugated to biotin)
T2 construct: domain: first 33 amino acids of the EC1 domain
T2 peptide (looked up): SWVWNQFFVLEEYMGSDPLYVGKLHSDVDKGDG

T3: Cad-18 EC1 domain peptide (region overlapping G1-G33 of Cad-11 EC1) (UniProt Q13634 54-86, conjugated to biotin)
T3 construct: domain: first 33 amino acids of the EC1 domain
T3 peptide (looked up): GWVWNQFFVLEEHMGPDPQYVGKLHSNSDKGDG

T4: Cad-9 EC1 domain peptide (region overlapping G1-G33 of Cad-11 EC1) (UniProt Q9ULB4 54-86, conjugated to biotin)
T4 construct: domain: first 33 amino acids of the EC1 domain
T4 peptide (looked up): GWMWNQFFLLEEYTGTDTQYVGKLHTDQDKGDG

T5: Cad-20 EC1 domain peptide (region overlapping G1-G33 of Cad-11 EC1) (UniProt Q9HBT6 60-92, conjugated to biotin)
T5 construct: domain: first 33 amino acids of the EC1 domain
T5 peptide (looked up): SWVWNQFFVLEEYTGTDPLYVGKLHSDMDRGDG

T6: Cad-24 EC1 domain peptide (region overlapping G1-G33 of Cad-11 EC1) (UniProt Q86UP0 45-77, conjugated to biotin)
T6 construct: domain: first 33 amino acids of the EC1 domain
T6 peptide (looked up): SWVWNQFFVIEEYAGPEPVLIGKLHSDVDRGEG


Key:
[1] = molecular target: T1, BSA coupled 37-mer Cad-11 peptide …; assay: ELISA, BSA-coupled 37-mer cadherin peptide coated at 500 ng/ml, antibody titrated, A450
Procedure: Reactibind plates (ThermoScientific) were coated with 500 ng/ml of the BSA coupled cadherin 37-mer peptide (NE peptide) corresponding to Cadherins-7, -8, -9, -11, -18, -20, and -24 in 0.05% Tween (EMD, product code 9480) in PBS (pH 7.2) (Gibco(Invitrogen), #20012) at 100 μl volume/well for overnight at 4° C. The peptide containing solution was removed from the well and the plate blocked with a 2% bovine serum albumin (BSA) in PBS, 200 μl volume/well, for 2 h at 22° C. The plate was then washed twice with 200 μl/well of PBS-Tween 0.05% at 22° C. and blotted dry. A dilution series from 5 μg/ml to 8 ng/ml in a volume of 100 μl/well of each the humanized anti-Cad-11 antibodies were incubated in the peptide coated wells and incubated at 22° C. for 1 hr. Antibody solution was removed from the wells and the plate washed twice with 200 μl/well of 0.05% Tween-PBS at 22° C. and blotted dry. The goat-anti mouse IgG (Pierce # 31432) was added to each well to plate at a 1:1000 dilution, 100 μl/well and incubate at 22° C. for 30 min. The secondary antibody solution was removed and the plate washed twice with 200 μl/well of 0.05% Tween-PBS at 22° C. and blotted dry. The reaction was developed by adding 100 μl/well tetramethylbenzidine (TMB) reagent IgG (Pierce # 34022, 1 step Turbo TMB-ELISA) to plate and developed at 22° C. for 5 min.

[2] = molecular target: T1, BSA coupled 37-mer Cad-11 peptide …; assay: ELISA on BSA coupled 37-mer cadherin peptides, coat 500 ng/ml
Procedure: A dilution series from 5 μg/ml to 8 ng/ml in a volume of 100 μl/well of each the humanized anti-Cad-11 antibodies were incubated in the peptide coated wells and incubated at 22° C. for 1 hr. Antibody solution was removed from the wells and the plate washed twice with 200 μl/well of 0.05% Tween-PBS at 22° C. and blotted dry. The goat-anti mouse IgG (Pierce # 31432) was added to each well to plate at a 1:1000 dilution, 100 μl/well and incubate at 22° C. for 30 min. The secondary antibody solution was removed and the plate washed twice with 200 μl/well of 0.05% Tween-PBS at 22° C. and blotted dry. The reaction was developed by adding 100 μl/well tetramethylbenzidine (TMB) reagent IgG (Pierce # 34022, 1 step Turbo TMB-ELISA) to plate and developed at 22° C. for 5 min.
The greatest cross reactivity was seen against Cad-8. […] This assay was repeated with the Cad-11, Cad-8 and Cad-18 antigens with a lower antigen coat concentration of 50 ng/ml and a wider dilution series of the SDP051 antibody (FIG. 41B). […] An EC50 for Cad-18 could not be established due to the low level of binding observed.

[3] = molecular target: T2, Cad-7 EC1 domain peptide (region …); assay: ELISA on biotinylated EC1 domain peptide captured on a Neutravidin plate, goat anti-mouse IgG, TMB, A450
Procedure: (§1) The specificity of H1M1 and H14 anti-Cad-11 antibodies was tested further using an ELISA against the first 33 amino acids of the EC1 domains of Cad-11, Cad-7, Cad-8, Cad-20, Cad-24, Cad-9, Cad-18, and MN-Cad. Peptides corresponding to the region of Cad-7, Cad-8, Cad-20, Cad-24, Cad-9, Cad-18, MN-Cad that overlapped with the G1-G33 region of the Cad-11 EC1 domain were synthesized and conjugated to biotin. 100 μl of a 30 ng/ml solution of each of these peptides in PBS-Tween (0.05%) were incubated in each well of a 96-well Netravidin plate for 2-3 hrs at 4° C. and then washed twice with PBS-Tween (0.05%). Various concentrations of the anti-Cad-11 antibody were incubated in each well for 1 hr at 22° C. and then washed twice with PBS-Tween (0.05%). 100 μl of a 1/1000 dilution of a goat anti-mouse IgG secondary antibody were added to each well, incubated for 30 min at 22° C., and then washed twice with PBS-Tween (0.05%). 100 μl/well of room temperature TMB (3,3′,5,5′-tetramethylbenzidine) reagent was added to each well and color was allowed to develop for 5 min at 22° C.

[4] = molecular target: T3, Cad-18 EC1 domain peptide (region …); assay: as above
Procedure: as §1

[5] = molecular target: T4, Cad-9 EC1 domain peptide (region …); assay: as above
Procedure: as §1

[6] = molecular target: T5, Cad-20 EC1 domain peptide (region …); assay: as above
Procedure: as §1

[7] = molecular target: T6, Cad-24 EC1 domain peptide (region …); assay: as above
Procedure: as §1

Row | Binder | EC50 (read off the curve) [1] [µg/mL] | fold greater binding to the Cad-11 antigen than to the related antigens from the other cadherins [2] [fold] | binding result [3] | binding result [4] | binding result [5] | binding result [6] | binding result [7]
1 | humanized anti-Cad-11 EC1 antibody SDP051 (Vκ1/VH5) (antibody, IgG4, V domains shown, humanized IgG4 (S241P), kappa) VH: EVQLVQSGAEVKKPGASVKVSCKASGYSFTGYFMNWVRQAPGQGLEWIGRINPYTGDTFYNQKFKGRVTITVDKSTSTAYMELSSLRSEDTAVYYCGRLGSRYWYFDVWGQGTTVTVSS VL: DVLMTQTPLSSPVTLGQPASISCRSSQSIIHSNGNTYLEWYLQKPGQSPQLLIYKVSNRFSGVPDRFTGSGSGTDFTLKISRVEAEDVGVYYCFQGSHVPWTFGQGTKLEIK | ~0.04 | > 100 | – | – | – | – | –
2 | murine H1M1 monoclonal anti-Cad-11 EC1 antibody (hybridoma H1M1, ATCC PTA-9699) (antibody, V domains shown, Biotinylated when used as the labelled competitor in Example 14; the letters are unchanged., murine antibody raised against Peptide 4; also called SYN0012; SYN0012/H1M1) VH: EVQLQQSGPELVKPGASVKISCKASGYSFTGYFMNWVKQSHGKSLEWIGRINPYTGDTFYNQKFKGKATLTVDKSSSTAHMELLSLSSEDSAVYYCGRLGSRYWYFDVWGAGTTVTVSS VL: DVLMTQTPLSLPVSLGDQASISCRSSQSIIHSNGNTYLEWYLQKPGQSPKLLIYKVSNRFSGVPDRFTGSGSGTDFTLKISRVEAEDLGVYYCFQGSHVPWTFGGGTKLEIK | – | – | no binding | no binding | no binding | no binding | no binding
